System: Aβ from H1299 cell-conditioned media
Assay: ELISA, HN (endogenous and exogenously added) and AChE bound to Aβ from H1299 media on 82E1 antibody
Format: binding, human
Settings: H1299 cell-conditioned media, 82E1; Fig. 6
Method: Human NSCLC cell lines, A549 (ATCC CCL‐185) and H1299 (ATCC CRL‐5803), were purchased from the American Type Culture Collection (ATCC, Manassas, VA, USA). Cells were seeded as we reported earlier in 5 mL HyClone Dulbecco's modified Eagle's medium/nutrient mixture F‐12 (DMEM/F12) (GE Healthcare Life Sciences, Pittsburgh, PA, USA), supplemented with 10% Fetalgro bovine growth serum (FBS; RMBIO, Missoula, MT, USA), 50 U·mL^−1 penicillin, and […] streptomycin (Invitrogen, Life Technologies, Carlsbad, CA, USA) in 25‐cm^2 tissue culture flasks, and allowed to grow overnight in an incubator at 37 °C, 95% humidity, and 5% CO2. The cells were counted after trypan blue staining, with a hemocytometer.
ELISAs were carried out as we previously reported. […] TBST was then used to wash the wells 4× before proceeding in one of two ways: (a) biotinylated samples were analyzed by adding 100 µL streptavidin–HRP conjugate in TBST (1 : 2500 dilution) to the samples followed by incubation for 3 h at RT on a shaker, or (b) samples without biotin were analyzed by adding 100 µL TBST containing the primary antibody as per the manufacturer's recommendation, incubating for 3 h at RT on a shaker, followed by washing the wells 4× with TBST. […] The reaction was stopped with 100 µL 2 M H2SO4 after incubating at RT for 0.5–15 min, resulting in a yellow color change, measured by absorbance at 450 nm. […]

B1: acetylcholinesterase (protein)
chain: EGREDAELLVTVRGGRLRGIRLKTPGGPVSAFLGIPFAEPPMGPRRFLPPEPKQPWSGVVDATTFQSVCYQYVDTLYPGFEGTEMWNPNRELSEDCLYLNVWTPYPRPTSPTPVLVWIYGGGFYSGASSLDVYDGRFLVQAERTVLVSMNYRVGAFGFLALPGSREAPGNVGLLDQRLALQWVQENVAAFGGDPTSVTLFGESAGAASVGMHLLSPPSRGLFHRAVLQSGAPNGPWATVGMGEARRRATQLAHLVGCPPGGTGGNDTELVACLRTRPAQVLVNHEWHVLPQESVFRFSFVPVVDGDFLSDTPEALINAGDFHGLQVLVGVVKDEGSYFLVYGAPGFSKDNESLISRAEFLAGVRVGVPQVSDLAAEAVVLHYTDWLHPEDPARLREALSDVVGDHNVVCPVAQLAGRLAAQGARVYAYVFEHRASTLSWPLWMGVPHGYEIEFIFGIPLDPSRNYTAEEKIFAQRLMRYWANFARTGDPNEPRDPKAPQWPPYTAGAQQYVSLDLRPLEVRRGLRAQACAFWNRFLPKLLSATDTLDEAERQWKAEFHRWSSYMVHWKNQFDHYSKQDRCSDL
- AChE bound to Aβ: barely detectable levels
